Experimental findings from patent US20210221894A1 (DRAGONFLY THERAPEUTICS, published 2021) are described below.

A word on the Kd: it is the concentration at which binding is half-saturated. Broadly, the koff is the rate constant with which the complex falls apart. Usually kon stands for the second-order rate constant of association.

For one experiment, the target named is T1, recombinant human DLL1 (human, UniProt O00548 18-540, limits assumed).
T1 sequence (looked up): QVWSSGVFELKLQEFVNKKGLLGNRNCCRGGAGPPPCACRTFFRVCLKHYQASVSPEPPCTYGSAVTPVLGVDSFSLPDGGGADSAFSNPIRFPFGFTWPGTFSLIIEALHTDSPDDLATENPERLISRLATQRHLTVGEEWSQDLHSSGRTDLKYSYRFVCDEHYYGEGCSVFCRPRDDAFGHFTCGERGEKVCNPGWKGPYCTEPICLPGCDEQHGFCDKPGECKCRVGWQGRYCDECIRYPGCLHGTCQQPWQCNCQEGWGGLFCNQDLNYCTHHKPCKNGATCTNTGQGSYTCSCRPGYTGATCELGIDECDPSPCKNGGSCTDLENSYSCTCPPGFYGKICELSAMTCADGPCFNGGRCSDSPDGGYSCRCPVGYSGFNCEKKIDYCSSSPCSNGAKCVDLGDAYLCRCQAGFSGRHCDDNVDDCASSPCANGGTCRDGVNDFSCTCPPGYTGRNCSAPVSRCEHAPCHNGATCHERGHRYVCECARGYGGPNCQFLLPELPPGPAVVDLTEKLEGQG
Put plainly: ELISA, plate-bound recombinant human DLL1 (1 µg/mL), anti-mouse IgG-HRP/TMB, % of positive control max. The essentials: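 Binding read by anti-mouse IgG-HRP with TMB substrate against wells coated with recombinant human DLL1 (1 μg/ml) or DLL4 (0.5 μg/ml) to test cross-reactivity of anti-DLL3 antibodies. Signals normalized to the corresponding positive control antibody.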

Experiment [1] concerns the target T2, recombinant His-tagged EGF3-6 domains of human DLL3 (human, UniProt Q9NYJ7 312-492, limits assumed).
T2 sequence: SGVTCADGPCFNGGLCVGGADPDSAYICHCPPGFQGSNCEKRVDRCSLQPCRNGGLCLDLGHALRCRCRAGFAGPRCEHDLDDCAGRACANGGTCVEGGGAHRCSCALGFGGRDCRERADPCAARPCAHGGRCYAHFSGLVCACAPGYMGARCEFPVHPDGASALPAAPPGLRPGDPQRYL
Put plainly: SPR (Biacore 8K), 37 C, antibody captured on anti-mouse Fc, DLL3 domain construct injected, 1:1 fit. From the text:
(§1) The binding kinetics of different anti-DLL3 antibodies to recombinant proteins of different domains of human DLL3 were studied by surface plasmon resonance (SPR) using a Biacore™ 8K instrument. These anti-DLL3 antibodies were produced from mouse hybridomas, and each included a heavy chain variable region and light chain variable region described herein. Briefly, antibodies recognizing human IgG Fc and antibodies recognizing mouse IgG Fc were immobilized on different channels of a Biacore™ 8K chip to allow simultaneous analysis of human and murine anti-DLL3 antibodies. Murine anti-DLL3 antibodies were captured on the anti-mouse Fc channel of the Biacore chip. The human anti-DLL3 antibody from Stemcentrx (San Francisco, Calif.) was used as a control and was captured onto anti-human Fc channel of the Biacore™ chip. Different concentrations of DLL3 ECD, DLL3 N-terminal domain, EGF2-6, EGF3-6, EGF4-6, or EGF5-6 domains of DLL3 were injected. Experiments were performed at 37° C. Biacore™ 8K evaluation software was used for all data analysis. To obtain kinetic rate constants double-referenced data were fit to a 1:1 interaction model using Biacore™ 8K Evaluation software (GE Healthcare, Marlborough, Mass.). The equilibrium binding constant KD was determined by the ratio of binding rate constants kd/kₐ.
(§2) The binding epitope on DLL3 by the anti-DLL3 antibody which included a heavy chain variable region and light chain variable region of clone 5E7 (see Table 2) was identified by SPR analysis at 37° C.
A general note: In SPR one partner is held on a chip, and binding of the other changes the refractive index at the surface.

Experiment [2] has as its target T3, recombinant His-tagged EGF2-6 domains of human DLL3 (human, UniProt Q9NYJ7 274-492, limits assumed).
T3 sequence: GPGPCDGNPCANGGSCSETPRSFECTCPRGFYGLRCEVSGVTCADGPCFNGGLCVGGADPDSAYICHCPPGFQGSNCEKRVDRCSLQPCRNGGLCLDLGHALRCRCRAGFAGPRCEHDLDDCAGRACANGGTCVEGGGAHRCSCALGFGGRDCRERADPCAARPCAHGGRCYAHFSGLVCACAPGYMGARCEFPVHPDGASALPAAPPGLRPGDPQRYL
The description is as above.
Description: as §1, §2

Experiment [3] concerns the target T4, recombinant His-tagged EGF4-6 domains of human DLL3 (human, UniProt Q9NYJ7 353-492, limits assumed).
T4 sequence: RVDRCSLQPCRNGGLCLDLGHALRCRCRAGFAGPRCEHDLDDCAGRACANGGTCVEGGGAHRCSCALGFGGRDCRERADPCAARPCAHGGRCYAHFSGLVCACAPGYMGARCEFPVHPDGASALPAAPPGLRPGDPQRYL
Described as above.
Description: as §1, §2

For experiment [4], the target named is T5, extracellular domain (ECD) of human DLL3 (AdipoGen Life Sciences) (human, UniProt Q9NYJ7 27-492).
T5 construct: Bought and further purified by size exclusion chromatography; also called hDLL3 ECD; DLL3 ECD
T5 sequence: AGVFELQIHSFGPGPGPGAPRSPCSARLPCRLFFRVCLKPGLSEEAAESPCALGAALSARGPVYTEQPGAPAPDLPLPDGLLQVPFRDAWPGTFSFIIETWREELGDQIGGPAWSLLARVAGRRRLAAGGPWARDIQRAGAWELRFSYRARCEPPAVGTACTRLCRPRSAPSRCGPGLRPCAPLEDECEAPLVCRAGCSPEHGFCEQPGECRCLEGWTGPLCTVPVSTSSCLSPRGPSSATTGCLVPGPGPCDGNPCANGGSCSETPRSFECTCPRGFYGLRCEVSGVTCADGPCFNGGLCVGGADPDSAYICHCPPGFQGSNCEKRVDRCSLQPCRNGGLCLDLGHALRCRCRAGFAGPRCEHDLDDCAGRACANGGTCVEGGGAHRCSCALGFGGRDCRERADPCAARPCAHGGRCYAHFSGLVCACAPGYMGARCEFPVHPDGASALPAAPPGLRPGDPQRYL
Put plainly: SPR (Biacore 8K), 37 C, antibody captured on anti-mouse Fc; same values as in Table 36; 37 C; hDLL3 ECD construct.
Description: as §1
Table 36 lists the calculated binding kinetics (KD). […]

B1: murine anti-DLL3 antibody clone 5E7 (antibody, V domains shown)
VH: EVQLQQSGAELVRPGASVKLSCTASGFNIKDDYIHWVKQWPEQGLEWIGWIDSENGDTEYASKFQGKATMTADTSSNTAYLQLSGLTSEDTAVYYCTTSSYYSYDLFVYWGQGTLVTVSA
VL: DVLMTQTPLTLSVPIGQPASISCKSSQSLLHSNGKTYLNWLLQRPGQSPKLLIYLVSKLESGVPDRFSGSGSGTDFTLKISRVEAEDLGVYYCLQTTHLYTFGGGTKLEIK
notes: Murine antibody produced from a mouse hybridoma, captured on anti-mouse Fc in SPR; also called m5E7; murine 5E7
Regarding B1, the binding result with recombinant human DLL1 is “no binding”. The results for the Kd in experiment [1], in experiment [2] and in experiment [3] were 0.184 nM, 0.669 nM and 1.12 nM, respectively. In addition, the koff worked out at 0.000264 s⁻¹ in experiment [1], 0.000382 s⁻¹ in experiment [2] and 0.00061 s⁻¹ in experiment [3]. The kon worked out at 1.45e+06 M⁻¹ s⁻¹ in experiment [1], 570000 M⁻¹ s⁻¹ in experiment [2], 546000 M⁻¹ s⁻¹ in experiment [3] and 319000 M⁻¹ s⁻¹ in experiment [4].
